Measurements taken from patent US20250215100A1 (HARBOUR BIOMED SHANGHAI, published 2025).
Positions count from the first letter of the chain named. Names and notes keep the numbering of the source.

B1: PR006239 (antibody, human IgG1, kappa)
heavy: QVQLVQSGAEVKKPGASVKVSCKASGYTFAGYYMYWVRQAPGQGLEWMGWINPDSGAPTYAQKFQGRVTMTRDTSISTAYMELSRLRSDDTAVYYCAREKIYYGSGNYYPSFDYWGQGTLVTVSSASTKGPSVFPLAPSSKSTSGGTAALGCLVKDYFPEPVTVSWNSGALTSGVHTFPAVLQSSGLYSLSSVVTVPSSSLGTQTYICNVNHKPSNTKVDKKVEPKSCDKTHTCPPCPAPEAAGAPSVFLFPPKPKDTLMISRTPEVTCVVVDVSHEDPEVKFNWYVDGVEVHNAKTKPREEQYNSTYRVVSVLTVLHQDWLNGKEYKCKVSNKALPAPIEKTISKAKGQPREPQVYTLPPSREEMTKNQVSLTCLVKGFYPSDIAVEWESNGQPENNYKTTPPVLDSDGSFFLYSKLTVDKSRWQQGNVFSCSVMHEALHNHYTQKSLSLSPGK
light: DIQLTQSPSFLSASVGDRVTITCRASQGISSYLAWYQQKPGKAPKLLIYAASTLQSGVPSRFSGSGSGTEFTLTISSLQPEDFATYYCQQLNSYPWTFGQGTKVEIKRTVAAPSVFIFPPSDEQLKSGTASVVCLLNNFYPREAKVQWKVDNALQSGNSQESVTEQDSKDSTYSLSSTLTLSKADYEKHKVYACEVTHQGLSSPVTKSFNRGEC
notes: Variable regions of PR003379 on human IgG1 with L234A, L235A, G237A; no mutation in the variable region
B2: PR006496 (antibody, human IgG1, kappa, V domains shown)
VH: QVQLVQSGAEVKKPGASVKVSCKASGYTFAGYYMYWVRQAPGQGLEWMGWINPDSGAPTYAQKFQGRVTMTRDTSISTAYMELSRLRSDDTAVYYCAREKIYYGSGNYYPSFDYWGQGTLVTVSS
VL: DIQLTQSPSFLSASVGDRVTITCRASQGISSYLAWYQQKPGKAPKLLIYAASTLQSGVPSRFSGSGSGTEFTLTISSLQPEDFATYYCQQLFSYPWTFGQGTKVEIKR
notes: PR003379 variant L:N92F; human IgG1 L234A, L235A, G237A
B3: PR006495 (antibody, human IgG1, kappa, V domains shown)
VH: B2 VH
VL: B2 VL with F92A
notes: PR003379 variant L:N92A; human IgG1 L234A, L235A, G237A
B4: PR006507 (antibody, human IgG1, kappa, V domains shown)
VH: B2 VH
VL: B2 VL with F92N, S93E
notes: PR003379 variant L:S93E; human IgG1 L234A, L235A, G237A
B5: PR006493 (antibody, human IgG1, kappa, V domains shown)
VH: B2 VH
VL: B2 VL with F92L
notes: PR003379 variant L:N92L; human IgG1 L234A, L235A, G237A
B6: PR006506 (antibody, human IgG1, kappa, V domains shown)
VH: B2 VH
VL: B2 VL with F92N, S93F
notes: PR003379 variant L:S93F; human IgG1 L234A, L235A, G237A
B7: PR006492 (antibody, human IgG1, kappa, V domains shown)
VH: B2 VH
VL: B2 VL with F92E
notes: PR003379 variant L:N92E; human IgG1 L234A, L235A, G237A
B8: PR006516 (antibody, human IgG1, kappa, V domains shown)
VH: B2 VH
VL: B2 VL with F92N, S93H
notes: PR003379 variant L:S93H; human IgG1 L234A, L235A, G237A
B9: PR006512 (antibody, human IgG1, kappa, V domains shown)
VH: B2 VH
VL: B2 VL with F92N, S93T
notes: PR003379 variant L:S93T; human IgG1 L234A, L235A, G237A
B10: PR006514 (antibody, human IgG1, kappa, V domains shown)
VH: B2 VH
VL: B2 VL with F92N, S93V
notes: PR003379 variant L:S93V; human IgG1 L234A, L235A, G237A
B11: PR006503 (antibody, human IgG1, kappa, V domains shown)
VH: B2 VH
VL: B2 VL with F92G
notes: PR003379 variant L:N92G; human IgG1 L234A, L235A, G237A
B12: PR006501 (antibody, human IgG1, kappa, V domains shown)
VH: B2 VH
VL: B2 VL with F92Q
notes: PR003379 variant L:N92Q; human IgG1 L234A, L235A, G237A
B13: PR006513 (antibody, human IgG1, kappa, V domains shown)
VH: B2 VH
VL: B2 VL with F92N, S93Q
notes: PR003379 variant L:S93Q; human IgG1 L234A, L235A, G237A
B14: PR006509 (antibody, human IgG1, kappa, V domains shown)
VH: B2 VH
VL: B2 VL with F92N, S93L
notes: PR003379 variant L:S93L; human IgG1 L234A, L235A, G237A
B15: PR006494 (antibody, human IgG1, kappa, V domains shown)
VH: B2 VH
VL: B2 VL with F92T
notes: PR003379 variant L:N92T; human IgG1 L234A, L235A, G237A
B16: PR006505 (antibody, human IgG1, kappa, V domains shown)
VH: B2 VH
VL: B2 VL with F92N, S93I
notes: PR003379 variant L:S93I; human IgG1 L234A, L235A, G237A
B17: PR001303 (APX005) (antibody, human IgG1, kappa)
heavy: not shown
light: DIQMTQSPSSLSASVGDRVTIKCQASQSISSRLAWYQQKPGKPPKLLIYRASTLASGVPSRFSGSGSGTDFTLTISSLQPEDVATYYCQCTGYGISWPIGGGTKVEIKRTVAAPSVFIFPPSDEQLKSGTASVVCLLNNFYPREAKVQWKVDNALQSGNSQESVTEQDSKDSTYSLSSTLTLSKADYEKHKVYACEVTHQGLSSPVTKSFNRGEC
notes: CD40 positive control antibody

These binders were tested against T1, human CD40 on cells (human, UniProt P25942 21-277) (assay: cell-based or functional assay).
T1 sequence (P25942 21-277): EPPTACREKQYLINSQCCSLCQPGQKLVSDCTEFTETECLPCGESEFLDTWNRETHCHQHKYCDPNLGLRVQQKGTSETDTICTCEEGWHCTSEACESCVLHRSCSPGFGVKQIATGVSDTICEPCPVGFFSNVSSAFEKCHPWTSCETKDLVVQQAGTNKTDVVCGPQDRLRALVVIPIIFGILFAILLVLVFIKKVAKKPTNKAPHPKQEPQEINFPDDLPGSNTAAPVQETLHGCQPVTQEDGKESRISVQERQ

| EC50 (nM), crosslinked, HEK293-hCD40-NFkB reporter | EC50 (nM), uncrosslinked, HEK293-hCD40-NFkB reporter | Fold (EC50 in the absence of crosslinking/EC50 in the presence of crosslinking) | Maximum fold (fold), crosslinked | Maximum fold (fold), uncrosslinked | Binder |
| --- | --- | --- | --- | --- | --- |
| 0.098 nM | 0.173 nM | 1.77 fold | 5.76 fold | 4.58 fold | B1 |
| 0.217 nM | 0.43 nM | 1.98 fold | 5.03 fold | 4.43 fold | B2 |
| 0.109 nM | 0.905 nM | 8.28 fold | 5.54 fold | 4.92 fold | B3 |

What follows are binders tested against T1, human CD40 on cells (assay: FACS, Raji cells).
Description: (§1) Flow cytometry (FACS) was used to detect the binding ability of the CD40 antibody to cells, such as, CHO-K1/hCD40 highly expressing human CD40 (constructed by Beijing Kyinno Biotechnology), CHO-K1/cyCD40 highly expressing cynomolgus monkey CD40 (constructed by Beijing Kyinno Biotechnology) and lymphoma cell highly expressing human CD40, Raji (ATCC, #CCL-86). Specifically, the cells were digested and resuspended with complete medium (F-12K for CHO-K1 cells; and RPMI-1640 for Raji cells); and the cells were adjusted to a cell density of 1×10⁶ cells/mL. The cells were seeded in a 96-well V-bottom plate (Corning, #3894) at 100 μL/well, and the antigen binding protein to be tested at 2x final concentration was then added at 100 μL/well and mixed evenly, with the highest final concentration of the antigen binding protein of 300 nM, a total of 8 concentrations, and 5-fold concentration gradient dilution. hIgG (Crownbio, #C0002) was used as a negative control, and the positive control molecule was the molecule in Table 1-5. The cells were incubated at 4° C. for 1 hours in the dark. After the incubation, the cells were rinsed twice by adding pre-chilled PBS at 100 μL/well, and centrifuged at 500 g at 4° C. for 5 minutes, and the supernatant was discarded. Then, a fluorescent secondary antibody (goat anti-human IgG (H+L) secondary antibody, Alexa Fluor® 488 conjugate, Invitrogen, #A11013, 1:1000 dilution) was added at 100 µL/well, and the cells were incubated at 4° C. for 30 minutes in the dark. The cells were washed twice with pre-chilled PBS at 200 μL/well, and centrifuged at 500 g at 4° C. for 5 minutes, and the supernatant was discarded. Finally, the cells were resuspended in pre-chilled PBS at 200 μL/well. The fluorescence signal values were read using a BD FACS CANTOII flow cytometer or ACEA NovoCyte flow cytometer, and the data were processed and analyzed using FlowJo v10 software (FlowJo, LLC).
(§2) Data processing and graphical analysis were performed using GraphPad Prism 8 software. The binding curve of the antibody to the target cell and parameters, such as EC50 value were obtained by four-parameter nonlinear fitting.

| EC50 | Maximum MFI | Binder |
| --- | --- | --- |
| 0.332 nM | 9050 MFI | B1 |
| 0.384 nM | 12300 MFI | B4 |
| 0.377 nM | 9350 MFI | B5 |
| 0.277 nM | 9300 MFI | B2 |
| 0.388 nM | 12100 MFI | B6 |
| 0.418 nM | 9070 MFI | B7 |
| 0.351 nM | 8900 MFI | B8 |
| 0.356 nM | 8870 MFI | B3 |
| 0.424 nM | 12100 MFI | B9 |
| 0.455 nM | 12000 MFI | B10 |
| 0.333 nM | 12200 MFI | B11 |
| 0.352 nM | 9000 MFI | B12 |
| 0.373 nM | 12000 MFI | B13 |
| 0.371 nM | 12200 MFI | B14 |
| 0.328 nM | 9180 MFI | B15 |
| 0.336 nM | 11900 MFI | B16 |
| 0.0347 nM | 2790 MFI | B17 |

The binders below were run against T2, cynomolgus monkey CD40 on cells (cynomolgus monkey, UniProt G7PG38 21-278) (assay: FACS, CHO-K1/cyCD40 cells).
T2 construct: also called cyCD40; CHO-K1/cyCD40
Description: as §1, §2

T2 sequence (G7PG38 entry or part of it limits assumed): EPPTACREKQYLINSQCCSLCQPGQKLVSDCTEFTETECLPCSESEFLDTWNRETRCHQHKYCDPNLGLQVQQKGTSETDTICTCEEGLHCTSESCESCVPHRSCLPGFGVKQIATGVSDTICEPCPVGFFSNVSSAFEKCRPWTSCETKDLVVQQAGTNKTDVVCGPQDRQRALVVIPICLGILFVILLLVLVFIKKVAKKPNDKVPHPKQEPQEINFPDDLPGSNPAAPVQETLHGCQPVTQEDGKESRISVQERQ

| EC50 | Maximum MFI | Binder |
| --- | --- | --- |
| 4.41 nM | 51800 MFI | B1 |
| 5.01 nM | 49300 MFI | B4 |
| 4.06 nM | 48900 MFI | B5 |
| 3.5 nM | 49700 MFI | B2 |
| 4.5 nM | 47300 MFI | B6 |
| 6.26 nM | 52200 MFI | B7 |
| 5.29 nM | 51400 MFI | B8 |
| 4.41 nM | 48000 MFI | B3 |
| 4.55 nM | 45800 MFI | B9 |
| 4.23 nM | 45100 MFI | B10 |
| 3.99 nM | 49600 MFI | B11 |
| 4.19 nM | 48200 MFI | B12 |
| 3.56 nM | 40200 MFI | B13 |
| 4.69 nM | 45300 MFI | B14 |
| 4.04 nM | 49600 MFI | B15 |
| 4.62 nM | 48100 MFI | B16 |
| 4.72 nM | 93600 MFI | B17 |

Each binder was assayed against T1, human CD40 on cells (assay: FACS, CHO-K1/hCD40 cells).
Description: as §1, §2

| EC50 | Maximum MFI | Binder |
| --- | --- | --- |
| 6.67 nM | 88600 MFI | B1 |
| 5.58 nM | 81800 MFI | B4 |
| 5.26 nM | 83400 MFI | B5 |
| 4.8 nM | 88200 MFI | B2 |
| 5.85 nM | 82800 MFI | B6 |
| 8.87 nM | 92300 MFI | B7 |
| 5.08 nM | 86100 MFI | B8 |
| 4.9 nM | 79400 MFI | B3 |
| 5.18 nM | 81600 MFI | B9 |
| 5.08 nM | 86900 MFI | B10 |
| 6.07 nM | 84500 MFI | B11 |
| 5.29 nM | 91000 MFI | B12 |
| 7.51 nM | 89200 MFI | B13 |
| 5.51 nM | 79600 MFI | B14 |
| 8.73 nM | 98800 MFI | B15 |
| 6.08 nM | 82700 MFI | B16 |
| 2.83 nM | 26000 MFI | B17 |
